Results: patent US9217032B2, “Methods for treating colorectal cancer” (LES LABORATOIRES SERVIER, priority 2010, dated 2015)

B1: MAb4: murine N-terminal anti-hPG monoclonal antibody, hybridoma 20D2C3G2, VH SEQ ID NO:14, VL SEQ ID NO:15 (antibody, V domains shown)
VH: QVQLQQSGAELMKPGASVKISCKATGYTFSSSWIEWLKQRPGHGLEWIGEFLPGSGSTDYNEKFKGKATFTADTSSDTAYMLLSSLTSEDSAVYYCATDGNYDWFAYWGQGTLVTVSA
VL: DLVMTQTPLSLPVSLGDQASISCRSSQSLVHSSGVTYLHWYLQKPGQSPKLLIYKVSNRFSGVPDRFSGSGSGTDFTLKISRVEAEDLGVYFCSQSTHVPPTFGSGTKLEIK
B2: MAb3: murine N-terminal anti-hPG monoclonal antibody, hybridoma 6B5B11C10, VH SEQ ID NO:12, VL SEQ ID NO:13 (antibody, V domains shown)
VH: EVQLQQSGTVLARPGASVKMSCKASGYIFTSYWVHWVKQRPGQGLEWIGGFYPGNSDSRYNQKFKGKATLTAVTSASTAYMDLSSLTNEDSAVYFCTRRDSPQYWGQGTTLTVSS
VL: DVLMTQTPLSLPVSLGDQASISCRSSQSIVHSNGNTYLEWYLQKPGQSPKLLIYKVSNRFSGVPDRFSGSGSGTDFTLKISRLEAEDLGVYYCFQGSHVPFTFGGGTKLEIK
B3: MAb8: murine C-terminal anti-hPG monoclonal antibody, hybridoma 1C10D3B9, VH SEQ ID NO:59, VL SEQ ID NO:63 (antibody, V domains shown)
VH: EVQLVESGGGLVKPGGSLKLSCAASGFTFTTYAMSWVRQTPEKRLEWVATISSGGTYTYYPDSVKGRFTISRDNAKNALYLQMSSLRSEDTAMYYCATQGNYSLDFWGQGTSLTVSS
VL: DIVMTQAASSNPVTLGTSASISCRSSKSLRHTKGITFLYWYLQKPGQSPQLLIYQMSNLASGVPDRFSSSGSGTDFTLRISRVEAEDLGVYYCAQNLELPLTFGAGTKLELK

How the values were obtained:
[1] = tested on: SW620 metastatic colorectal cancer cells; assay: Growth of SW620 cells in culture, monoclonal antibodies; type: cell-based, human; details: for reduction of growth of SW620 cells compared to control antibody: MAb1-MAb4, 48 hours; for Cell numbers: SW620, 48 hours, treated every 12 hours, average cells per well minus cells seeded (T0), CT antibody-T0 158556
Procedure: (§1) SW620 cells were seeded into 6-well plates, serum-starved overnight, then treated every 12 hours with PBS, 3 microgram/ml control antibody (Mouse anti-human IgG1, Calbiochem, Ref #411451) or four different anti-PG monoclonal antibodies, MAb3, MAb4, MAb2, and MAb1. The experiment was carried out in duplicate, and the technician was blinded as to the contents of the treatment solutions. Forty-eight hours after the start of the treatments the number of surviving cells in each well were counted six times and averaged.
In a separate experiment, SW620 cells were seeded into 6-well plates (100,000 cells per well) and treated similarly above with 5 μg/ml of anti-hPG monoclonal antibodies 5-23 (i.e., MAb5-MAb23) or 5 μg/ml control antibody. After 48 hours the number of viable cells were counted from which the number of cells at the beginning of the experiment (i.e., T0) were subtracted. The number of surviving cells in the specific antibody treated wells was then expressed as a percentage of the control.

[2] = tested on: T84 metastatic colorectal cancer cells; assay: Growth of T84 cells in culture; type: cell-based, human; details: FIG. 7; P value 0.0370 Mann Whitney
Procedure: as §1
The methods employed for this experiment were similar to those used to measure the effect of anti-progastrin monoclonal antibodies on SW620 cells, except that the anti-progastrin antibody used was anti-hPG MAb3.

[3] = tested on: SW620 cells; assay: Hepatic metastases by SW620 cell xenografts in nude mice, monoclonal antibody; type: in vivo, BALBc/nude mice
Procedure: A total of 5×10^6 SW620 cells were injected into the spleen of each of 20 BALBc/nude mice at age 5 weeks old. Two minutes after injection of the cells, the spleens were surgically removed. After recovery, mice were randomly divided into two groups, each of which was subjected to one of two different treatments. Specifically, 10 mice were injected with a control antibody (anti-human IgG1Fc) diluted in PBS, and 10 mice were injected with anti-hPG monoclonal antibody MAb3, also diluted in PBS. The dose of antibodies was 8 mg/kg in a volume of 150 microliters. Injections were made intraperitoneally twice per week for six weeks. Once per week each mouse was weighed. Six weeks later, after the course of injections was finished, the mice were euthanized with carbon dioxide and the livers were removed and the number of visible metastases present was counted.

[4] = tested on: T84 metastatic colorectal cancer cells; assay: Pre-treatment of T84 cells: ALDH1 positive cells (ALDEFLUOR); type: cell-based, human; details: pre-treatment 72 hours, 1 μg/ml, FIG. 24
Procedure: (§2) Cells tested were from the metastatic colorectal cancer cell lines T84 and SW620. Cells were first grown in conventional adherent cultureware for 72 hours in the presence of the anti-progastrin monoclonal antibody MAb3 (1 μg/ml), a control monoclonal antibody, the chemotherapeutic agent 5-fluorouracil (5FU 10 μM), or the solvent dimethylsulfoxide (DMSO). After treatment, cells were subjected to two assays. In the first, the percentage of cells positive for the cancer stem cell marker ALDH1 were determined using an ALDEFLUOR kit (Stemcell Technologies). In the second assay, for each treatment group, cells were plated into six wells of low adherence 96 well-plates at a density of 500 cells per well in 100 μl of serum-free medium containing bFGF and EGF and grown for 11 days without further treatment. After the end of this period, the number of spheroids per well was then counted.

[5] = tested on: SW620 metastatic colorectal cancer cells; assay: Pre-treatment of SW620 cells: ALDH1 positive cells (ALDEFLUOR); type: cell-based, human; details: pre-treatment 72 hours, 1 μg/ml, FIG. 25
Procedure: as §2

[6] = tested on: SW620 colorectal cancer cells; assay: Cells isolated from SW620 metastases of treated nude mice: cell count and spheroid growth; type: in vivo, BALBc/nude mice
Procedure: (§3) Using standard techniques, immunodeficient BALBc/nude mice were given intra-splenic injections of human metastatic SW620 colorectal cancer cells. The mice were then administered the anti-hPG monoclonal antibody MAb3 or a control monoclonal antibody twice per week for a total of six weeks. For each antibody, the dose was 8 mg/kg. At the end of the treatment period tissue was dissected from metastases from both treated and control mice. Tumor cells were disaggregated by treatment of the dissected tissue with Accumax, filtered and counted. A total of 23,800 viable tumor cells were obtained from metastatic tissue from the mice treated with MAb3, and 36,400 were obtained from control mice.
(§4) For the spheroid test, for each of the treated and control cells, 2,000 cells/well were seeded into five wells of low adherence cultureware in M11 medium supplemented with bFGF and EGF. Cells were grown for seven days, and then the number of spheroids that formed in each well was counted. For the transplantation test, spheroids developing from cells isolated from treated and control metastases were pooled, disaggregated and counted. A total of 20,000 cells were obtained from spheroids derived from treated metastases, and 110,000 cells were obtained from spheroids derived from control metastases. […] Tumor volume was then calculated through time in both animals.

[7] = tested on: SW620 colorectal cancer cells; assay: Initiation of new tumors after transplantation of cells from treated metastases; type: in vivo, BALBc/nude mice; details: 6,500 cells subcutaneously into thighs of two nude mice; tumor volume; FIG. 29
Procedure: as §3, §4

[8] = tested on: CRC1 primary colorectal cancer cells; assay: Spheroid formation by CRC1 cells in low adherence culture, monoclonal antibodies; type: cell-based, human; details: CRC1, 3 μg/ml; p<0.05 one-way ANOVA with Bonferroni; FIG. 20
Procedure: CRC1 cells were obtained from a human colon carcinoma biopsy according to standard procedures. After being dissociated in Accumax (Sigma) for 45 minutes at 37° C., cells were plated in low adherence 96 well-plates (Corning) at a density of 100 cells per well in M11 medium (DMEM/F12 with 20 ng/ml EGF, 10 ng/ml FGF, 20 μg/ml insulin, N2 supplement, 2 μg/ml cyproflaxin, 5 μg/ml gentamycin and 3 mg/ml glucose). For each treatment arm, 10 wells were used. Starting on the first day, cells were treated twice daily with one of four different anti-progastrin monoclonal antibodies, MAb5, MAb8, MAb13 or MAb16 (3 μg/ml) or the same concentration of monoclonal antibody P3X63Ag8 (ATCC, Ref TIB-9) or medium with no antibody added as controls. Thereafter, treatment was performed once daily for 8 days. Spheres were photographed daily for subsequent counting. All experiments were carried out in blinded fashion. After the conclusion of the experiment, the number of spheres from each treatment art was counted.

[9] = tested on: CRC1 primary colorectal cancer cells; assay: Pre-treatment of CRC1 cells: ALDH1 expressing cells by FACS; type: cell-based, human; details: 72 hours in conventional adherent culture; FIG. 22
Procedure: (§5) CRC1 cells were obtained from a human colon carcinoma biopsy according to standard procedures. After being dissociated in Accumax (Sigma) for 45 minutes at 37° C., CRC1 cells (100,000 cells/well) were grown under conventional adherent culture conditions in serum free DMEM medium for 72 hours in the presence or absence of anti-hPG monoclonal antibodies MAb5, MAb8, MAb13 or MAb16. Experiments were carried out in blinded fashion. At the end of the treatment period, two different assays were performed on the cells. First, the percentage of cells expressing ALDH1, a marker of colorectal cancer stem cells, was determined by FACS. In the second assay, for each treatment group, 200 cells/well were plated in six wells of a low adherence 24-well plate in 500 μl of serum-free M11 medium supplemented with bFGF and EGF, and grown for 7 days without further treatment. At the end of this period, photographs were taken and the number of spheres per well was counted, and sphere surface area measured.

[10] = tested on: CRC1 primary colorectal cancer cells; assay: Pre-treatment of CRC1 cells: spheroids in low adherence culture; type: cell-based, human; details: 72 hours pre-treatment, then 7 days low adherence without antibody, FIG. 23, MAb5, MAb8, MAb16 p<0.05
Procedure: as §5

Molecule	reduction of growth of SW620 cells compared to control antibody [1]	Cell numbers [1]	reduction of growth of T84 cells compared to control antibody [2]	mean weight of liver metastases ([3]; 8 mg/kg i.p. twice per week, six weeks, control mice 167 mg, not statistically significant)	decrease of mean number of metastases versus control antibody ([3]; 8 mg/kg i.p. twice per week, six weeks, p=0.0372)	mean number of metastases ([3]; 8 mg/kg intraperitoneally twice per week for six weeks, control antibody 7.3)	number of ALDH1 positive cells compared to control antibody [4]	number of ALDH1 positive cells compared to control antibody [5]	viable tumor cells obtained from metastatic tissue ([6]; 8 mg/kg twice per week for six weeks, control mice 36,400)	growth as spheroids of cells isolated from in vivo metastases ([6]; mice treated 8 mg/kg twice per week six weeks, 2,000 cells/well, seven days, FIG. 28)	ability to initiate new tumor growth after transplantation [7]	number of spheroids formed compared to non-specific antibody and medium alone [8]	number of CRC1 cells expressing ALDH1 compared to control [9]	number of spheroids formed after pre-treatment compared to control [10]
B1	more effective than the others	52984												
B2	more effective than the others	50056	effective to reduce the growth of T84 metastatic colorectal cancer cells	96 mg	41%	4.3	reduced	reduced	23,800	reduced	reduced			
B3												effective to reduce the number spheroids	reduce the number CRC1 primary colorectal cancer cells expressing ALDH1	effective to reduce the number of spheroids
